From patent US20250283871A1, “COMPOSITIONS AND METHODS FOR MODULATING THE INTERACTION BETWEEN SS18-SSX FUSION ONCOPROTEIN AND NUCLEOSOMES” (Dana-Farber Cancer Institute, Inc., priority 2020, published 2025)

Tests used:
[1] = molecular target: TRA2B_HUMAN Transformer-2 protein homolog beta (human) (UniProt P62995); assay: anti-SMARCA4 (BRG1) IP, mass spectrometry, HEK-293T cells
[2] = molecular target: VIME_HUMAN Vimentin (human) (UniProt P08670); assay: as above
[3] = molecular target: URB2_HUMAN Unhealthy ribosome biogenesis protein 2 homolog (human) (UniProt Q14146); assay: as above
[4] = molecular target: TNR6B_HUMAN Trinucleotide repeat-containing gene 6B protein (human) (UniProt Q9UPQ9); assay: as above
[5] = molecular target: ZC11A_HUMAN Zinc finger CCCH domain-containing protein 11A (human) (UniProt O75152); assay: as above
[6] = molecular target: ZN326_HUMAN DBIRD complex subunit ZNF326 (human) (UniProt Q5BKZ1); assay: as above
[7] = molecular target: UBC_HUMAN Polyubiquitin-C (human) (UniProt P0CG48); assay: as above
[8] = molecular target: QCR2_HUMAN Cytochrome b-c1 complex subunit 2, mitochondrial (human) (UniProt P22695); assay: as above
[9] = molecular target: TSP1_HUMAN Thrombospondin-1 (human) (UniProt P07996); assay: as above
[10] = molecular target: UBP2L_HUMAN Isoform 5 of Ubiquitin-associated protein 2-like (human) (UniProt Q14157); assay: as above
[11] = molecular target: UCRIL HUMAN Putative cytochrome b-c1 complex subunit Rieske-like protein 1 (human) (UniProt P0C7P4); assay: as above
[12] = molecular target: XRN2_HUMAN 5'-3' exoribonuclease 2 (human) (UniProt Q9H0D6); assay: as above
[13] = molecular target: YLPM1_HUMAN Isoform 4 of YLP motif-containing protein 1 (human) (UniProt P49750); assay: as above
[14] = molecular target: URB2_HUMAN Unhealthy ribosome biogenesis protein 2 homolog (human) (UniProt Q14146); assay: anti-SMARCA4 (BRG1) IP, mass spectrometry, human fibroblasts
[15] = molecular target: QCR2_HUMAN Cytochrome b-c1 complex subunit 2, mitochondrial (human) (UniProt P22695); assay: as above
[16] = molecular target: YLPM1_HUMAN Isoform 4 of YLP motif-containing protein 1 (human) (UniProt P49750); assay: as above
[17] = molecular target: TRA2B_HUMAN Transformer-2 protein homolog beta (human) (UniProt P62995); assay: anti-SMARCA4 (BRG1) IP, mass spectrometry, Aska-SS cells
[18] = molecular target: VIME_HUMAN Vimentin (human) (UniProt P08670); assay: as above
[19] = molecular target: URB2_HUMAN Unhealthy ribosome biogenesis protein 2 homolog (human) (UniProt Q14146); assay: as above
[20] = molecular target: TNR6B_HUMAN Trinucleotide repeat-containing gene 6B protein (human) (UniProt Q9UPQ9); assay: as above
[21] = molecular target: ZC11A_HUMAN Zinc finger CCCH domain-containing protein 11A (human) (UniProt O75152); assay: as above
[22] = molecular target: ZN326_HUMAN DBIRD complex subunit ZNF326 (human) (UniProt Q5BKZ1); assay: as above
[23] = molecular target: UBC_HUMAN Polyubiquitin-C (human) (UniProt P0CG48); assay: as above
[24] = molecular target: QCR2_HUMAN Cytochrome b-c1 complex subunit 2, mitochondrial (human) (UniProt P22695); assay: as above
[25] = molecular target: TSP1_HUMAN Thrombospondin-1 (human) (UniProt P07996); assay: as above
[26] = molecular target: UBP2L_HUMAN Isoform 5 of Ubiquitin-associated protein 2-like (human) (UniProt Q14157); assay: as above
[27] = molecular target: UCRIL HUMAN Putative cytochrome b-c1 complex subunit Rieske-like protein 1 (human) (UniProt P0C7P4); assay: as above
[28] = molecular target: XRN2_HUMAN 5'-3' exoribonuclease 2 (human) (UniProt Q9H0D6); assay: as above
[29] = molecular target: YLPM1_HUMAN Isoform 4 of YLP motif-containing protein 1 (human) (UniProt P49750); assay: as above

SMCA4_HUMAN Transcription activator BRG1 (from UniProt P51532 1-1647) (enzyme)
NSAF [1]: 0 | NSAF [2]: 0 | NSAF [3]: 4.08e-05 | NSAF [4]: 3.4e-05 | NSAF [5]: 7.68e-05 | NSAF [6]: 0.000749 | NSAF [7]: 9.09e-05 | NSAF [8]: 0 | NSAF [9]: 0 | NSAF [10]: 5.64e-05 | NSAF [11]: 0 | NSAF [12]: 6.55e-05 | NSAF [13]: 0.000116 | NSAF [14]: 0 | NSAF [15]: 0.00014 | NSAF [16]: 0.000266 | NSAF [17]: 0 | NSAF [18]: 0 | NSAF [19]: 0 | NSAF [20]: 0 | NSAF [21]: 0 | NSAF [22]: 0 | NSAF [23]: 0 | NSAF [24]: 0 | NSAF [25]: 0 | NSAF [26]: 0 | NSAF [27]: 0 | NSAF [28]: 0 | NSAF [29]: 0
